Earlier results, collected in article PMC5337993.

Biological target: Kv1.3 (Homo sapiens) (UniProt P22001)
Chain of UniProt P22001 (P22001 whole entry): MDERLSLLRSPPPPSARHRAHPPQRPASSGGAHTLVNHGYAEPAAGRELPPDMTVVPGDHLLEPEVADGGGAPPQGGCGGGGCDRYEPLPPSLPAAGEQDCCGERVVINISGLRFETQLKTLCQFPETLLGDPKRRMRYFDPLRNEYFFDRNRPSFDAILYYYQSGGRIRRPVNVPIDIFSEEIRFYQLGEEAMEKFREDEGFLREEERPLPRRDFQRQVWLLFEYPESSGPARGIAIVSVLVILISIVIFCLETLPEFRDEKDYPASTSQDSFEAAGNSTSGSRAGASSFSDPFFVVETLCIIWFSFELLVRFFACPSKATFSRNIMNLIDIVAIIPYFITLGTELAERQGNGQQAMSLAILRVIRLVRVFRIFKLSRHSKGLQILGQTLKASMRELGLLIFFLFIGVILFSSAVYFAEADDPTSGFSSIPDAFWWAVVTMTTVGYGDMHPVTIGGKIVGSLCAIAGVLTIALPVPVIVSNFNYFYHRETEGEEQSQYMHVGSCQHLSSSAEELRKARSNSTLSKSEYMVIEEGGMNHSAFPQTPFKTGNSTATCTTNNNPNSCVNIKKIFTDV

Substance: ShK (from UniProt P29187)
- Kd: 0.01 nM
